# Measurements taken from US20240294650A1 (Alector, published 2024).
# Numbering of substitutions follows the chain as printed.
# T1: MerTK N-terminal ECD Half-and-half chimera (human)
# T1 construct: tested as culture supernatant; also called MerTK N-term half-and-half chimera; MerTK N-terminal ECD (NT-Ig1-Ig2) + Axl C-terminal ECD (FN1-FN2-JM)
# T1 chain: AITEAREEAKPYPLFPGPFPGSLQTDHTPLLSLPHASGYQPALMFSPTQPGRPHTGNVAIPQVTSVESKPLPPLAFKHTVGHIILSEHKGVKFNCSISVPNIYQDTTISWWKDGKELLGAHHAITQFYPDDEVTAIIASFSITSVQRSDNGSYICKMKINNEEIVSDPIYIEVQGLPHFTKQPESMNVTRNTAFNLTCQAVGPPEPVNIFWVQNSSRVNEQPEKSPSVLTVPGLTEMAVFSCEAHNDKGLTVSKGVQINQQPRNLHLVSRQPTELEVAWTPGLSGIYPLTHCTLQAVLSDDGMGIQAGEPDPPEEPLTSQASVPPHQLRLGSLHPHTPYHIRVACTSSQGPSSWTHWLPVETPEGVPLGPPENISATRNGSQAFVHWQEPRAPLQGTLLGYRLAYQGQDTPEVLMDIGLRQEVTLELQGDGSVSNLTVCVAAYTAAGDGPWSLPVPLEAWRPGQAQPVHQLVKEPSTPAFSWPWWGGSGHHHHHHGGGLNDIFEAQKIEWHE
# T2: recombinant cynomolgus MerTK extracellular domain (cynomolgus, UniProt Q12866 21-505 (human entry))
# T2 construct: also called cyno MerTK ECD; not shown: polyHis or TEVS/Thrombin/murine IgG2a-Fc tag
# T2 chain: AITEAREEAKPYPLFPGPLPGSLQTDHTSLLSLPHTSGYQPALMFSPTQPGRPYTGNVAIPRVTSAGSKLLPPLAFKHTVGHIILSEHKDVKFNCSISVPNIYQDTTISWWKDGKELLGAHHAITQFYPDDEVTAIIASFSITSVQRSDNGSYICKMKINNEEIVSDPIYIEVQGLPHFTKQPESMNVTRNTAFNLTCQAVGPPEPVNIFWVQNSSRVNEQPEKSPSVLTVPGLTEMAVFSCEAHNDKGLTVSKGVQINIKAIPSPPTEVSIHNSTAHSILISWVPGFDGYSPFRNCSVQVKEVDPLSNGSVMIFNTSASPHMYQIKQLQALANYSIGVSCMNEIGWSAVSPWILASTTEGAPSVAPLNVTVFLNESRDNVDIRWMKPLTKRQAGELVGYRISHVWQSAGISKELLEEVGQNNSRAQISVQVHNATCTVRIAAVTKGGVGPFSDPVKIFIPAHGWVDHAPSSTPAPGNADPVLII
# T3: recombinant murine MerTK extracellular domain (mouse, UniProt Q60805 19-497)
# T3 construct: also called Mouse MerTK; murine MerTK ECD; not shown: polyHis or TEVS/Thrombin/murine IgG2a-Fc tag
# T3 sequence: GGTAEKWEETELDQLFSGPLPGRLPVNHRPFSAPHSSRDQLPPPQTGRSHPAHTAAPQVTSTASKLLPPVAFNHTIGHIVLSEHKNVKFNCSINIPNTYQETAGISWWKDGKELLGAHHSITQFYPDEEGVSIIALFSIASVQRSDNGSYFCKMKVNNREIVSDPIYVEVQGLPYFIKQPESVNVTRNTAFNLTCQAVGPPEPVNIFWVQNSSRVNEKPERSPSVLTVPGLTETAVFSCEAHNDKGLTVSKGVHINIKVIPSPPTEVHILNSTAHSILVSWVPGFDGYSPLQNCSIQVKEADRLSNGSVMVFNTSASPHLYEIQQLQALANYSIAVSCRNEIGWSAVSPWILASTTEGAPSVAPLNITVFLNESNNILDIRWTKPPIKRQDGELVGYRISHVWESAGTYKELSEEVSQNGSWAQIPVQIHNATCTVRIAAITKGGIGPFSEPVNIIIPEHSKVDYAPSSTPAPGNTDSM
# B1: MTK-229 (antibody, human IgG1, V domains shown)
# VH: QVQLQQSGPELVKPGASVKISCKASGYEFSRSWMNWVKQRPGKGLEWIGRIYPGDGDTNYKGKLKGQATLTADKSSSTAYMQLSSLTFEDSAVYFCARGGGYYYDSRYEGFVYWGQGTVVTVSA
# VL: QIVLTQSPAIMSASPGEEVTMTCSASSSVSYMHWYQQKSGTSPKRWIYDTSKLASGVSGRFSGSGSGTSYSLTISSMEAEDAATYYCQQWSSNPPITFGAGTKLELK
# B2: MTK-213 (antibody, human IgG1, V domains shown)
# VH: QVQLQQPGAELVKPGASVKMSCKASGYTFTSYWITWVKQRPGQGHEWIGEIYPGIGSTNYNEKFKSKATLTVDTSSRTAYMQLSSLTSEDSAVYFCARGAYTKYYFDYWGQGTTLTVSS
# VL: DIVMTQSHKFMSTSVGDRVSITCKASQDVGDAVAWYQQKPGQTPKLLIYWASTRHTGVPDRFTGSGSGTDFTLTISNVQSEDLADYFCQQYSSYLMYTFGGGTKLEIK
# B3: MTK-219 (antibody, human IgG1, V domains shown)
# VH: QVQLQQSGADLMKPGASVKLSCKATGNTFTGYWIEWVKQRPGHGLEWIGEILTGSGSTNYNERFKGKATFTADTSSNTAYMQLSSLTTEDSAIYYCAGSYFTNSWFPYWGQGSLVTVSA
# VL: DIVLTQSPASLAVSLGQRATISCRASESVDSYGNSFMHWYQQKPGQPPKLLIYRAYTLESGIPARFSGSGSRTDFTLTINPVEADDVATYYCQQSNEDPRTFGGGTKLEIK
# B4: MTK-228 (antibody, human IgG1, V domains shown)
# VH: QDQLQQSGPELVKPGASVKISCKASGYSFTSYYIHWVKQRPGQGLEWVGWIFPGNGNTKYNERFKGKATLTADTSSSTAYMQLSSLTSEDSAVYYCARLGLIYALDYWGQGTSVTVSS
# VL: DAVMTQTPLSLPVSLGDQASISCRSSQSLENSNGNTYLHWYLQKPGQSPQLLIYRVSNRFSGVLDRFSGSGSGTDFTLKISRVEAEDLGVYFCLQVTHVPFTFGSGTKLEIK
# B5: MTK-226 (antibody, human IgG1, V domains shown)
# VH: B4 VH with D2V, V48I, R63N, K65R
# VL: B4 VL with N31S, K79Q
# B6: MTK-218 (antibody, human IgG1, V domains shown)
# VH: B4 VH with D2V, A16T, E46D, V48I, G56R, K59Q, R63K
# VL: B4 VL with N35H, L64Q
# B7: MTK-223 (antibody, human IgG1, V domains shown)
# VH: DVQLQESGPGLVKPSQSLSLTCSVTGYSITSGYYWNWIRQFPGNKLEWMGYISYDGTNNYNPSLKNRISITRDTSENQFFLKLNSVTTEDTATYFCVRGAGYWGQGTTLTVSS
# VL: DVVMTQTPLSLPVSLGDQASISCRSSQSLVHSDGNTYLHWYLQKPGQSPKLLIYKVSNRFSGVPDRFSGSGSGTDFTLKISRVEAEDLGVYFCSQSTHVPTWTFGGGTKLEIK
# B8: MTK-231 (antibody, human IgG1, V domains shown)
# VH: B7 VH with N58Y, N61H, E76K, K82T, Y94F, F95Y, V97T, A100G, T108S, L109V
# VL: DVVMTQTPLSLPVSLGDQASISCRSSQSLVHSDGNTYLHWYLQKPGQSPKLLIYKVSNRFSGVPDRFSGSGSGTDFTLKISRLEAEDLGIYFCSQTTHIPLTFGSGTKLEIK
# B9: MTK-220 (antibody, V domains shown)
# VH: EVQLVESGGGLVKPGGSLKLSCAASGFTFSDYGMHWVRQAPEKGLEWVAFISGGSGTIYYEDTVKGRFTISRDNAKNTLFLQMTSLRSEDTAMYYCTRGGNYFDYWGQGTTLTVSS
# VL: NIMLTQSPSSLAVSAGEKVTMTCKSSQSVLYSSNQKNYLAWYQQKPGQSPKLLIYWASTRESGVPDRFTGSGSGTDFTLTISNVQAEDLAVYYCHQYFSSWTFGGGTKLEIK
# B10: MTK-202 (antibody, human IgG1, V domains shown)
# VH: EVQLVESGGGLVKPGGSLKLSCAASGFTFSDFGMHWVRQVPEKGLEWVAFISGGSNTIYYTDTVKGRFTISRDNAKNTLFLQMTSLRSEDTAMYYCVRNGNSFAYWGQGTLVTVSA
# VL: B9 VL with L4M, T22N, V84I, V91I, S99F
# B11: MTK-204 (antibody, human IgG1, V domains shown)
# VH: B9 VH with F50Y, G53S, S55T, G56S, T97A, N101L, Y102L
# VL: B9 VL with L4M, T22S, Y55Q, G74E, S82R, N83S
# B12: MTK-221 (antibody, human IgG1, V domains shown)
# VH: QVTLKESGPGMLQSSQTLSLTCSFSGFSLSTSGMGVSWIRQPSGKGLEWLAHIYWDDDKRYNTSLQSRLTISKDTSRNQVFLKITSVDTADTATYFCGRLGAYSAFPYYFDYWGQGTTLTVSS
# VL: DIQMTQSPSSLSASLGGKVTITCKASQDIHKHIAWYQHKPGKGPRLLIHYTSTLQPGIPSRFSGSGSGRDYSFSISNLEPEDLATYYCLQYDNLWTFGGGTKLEIK
# B13: MTK-211 (antibody, human IgG1, V domains shown)
# VH: QVQLQQSGAELMKPGASVKLSCKATGYTFTGYWIEWVKQRPGHGLEWIGEILPGSGGSNYNEKFKGKATFTADTSSNTAYIQLSSLTTEDSAIYCCARGEPSYFSDAGFAYWGQGTLVTVSA
# VL: QIVLTQSPAVMSASPGEKVTMTCSASSSITYMHWYQQKPGTSPKRWIYDTSKLASGVPARFSGSGSGTSYFLTISSMEAEDVATYYCHQRSTYPYTFGGGTKLEIM
# B14: MTK-215 (antibody, human IgG1, V domains shown)
# VH: EVQLVESGGGLVKPGGSLKLSCAASGFIFSDYGMHWVRQAPEKGLEWVAYISSGSSTIYYGDTVKGRFTISRDNAKNTLFLQMTSLRSEDTAMYYCAKGGRYGAMDYWGHGTSVTVSS
# VL: DIVLTQSPATLSVTPGDSVSLSCRASQSISNNLHWYQQKSHESPRLLIKNPSQSISGIPSRFGARGSGTDFTLIINSVETEDLGVYFCQQSNSWPFTFGSGTKLEIK
# B15: MTK-225 (antibody, human IgG1, V domains shown)
# VH: EVQLQQSGPELVKPGASVKIFCKASGYTFTAYNMDWVKQSHGKSLEWIGDINPNNGGTIYNQKFKGKATLTVDKSSSTAYMELRSLTSEDTAVYYCARRRRYGNTYYWYFDVWGTGTTVTVSS
# VL: DIQMTQSPASLSVSVGETVTITCRASENIYSSLAWYQQKQGKSPQLLVYAATNLADGVPSRFSGSGSGTQFYLKINGLQSEDFGSYYCQHFWGTSYTFGGGTKLEIK
# B16: MTK-208 (antibody, human IgG1, V domains shown)
# VH: QVQLQQPGAELVVPGASVRLSCKASGYTFINYWMHWVKQRPGQGLEWIGEIDPSDSYANYNQKFKDKSTLSLDKSSSTAYMQLSSLTSEDSAVYYCARCDYYGRLDYWGQGTTLTVSS
# VL: QVVLTQSPAIMSASPGEKVTITCSASSSVSYMLWFQQKPGTSPKLWIYSTSNLASGVPARFSGSGSGTSYSLTISRLEAEDAATYYCQQRSSYPPITFGAGTKLELK
# Assays:
# [1] = biological target: T1, MerTK N-terminal ECD Half-and-half …; assay: SPR, construct supernatant over immobilised Ab
# Procedure: Binding of anti-MerTK antibodies of the present disclosure to these domain-swapped chimera or deletion mutants was tested by Surface Plasmon Resonance (SPR) using Carterra LSA. Purified anti-MerTK antibodies were immobilized in duplicate on a HC30M chip (Carterra) by amine coupling, following the manufacturer's instructions (described previously).
# Supernatants containing the constructs were diluted 1:1 with running buffer containing 0.5 mg/mL BSA (HBS-TE, Carterra; BSA, Sigma) and injected over the immobilized antibodies. The surface was regenerated with 10 mM Glycine pH2.0 after each construct injection. Sensorgrams were analyzed using Carterra Epitope software to identify patterns of construct binding. Loss of binding to MerTK constructs with domains deleted or swapped in from Axl and/or gain of binding to Axl constructs with MerTK domains swapped in were evaluated. Data from these studies were used to construct a domain binding map for anti-MerTK antibodies and their binding to various domains of human MerTK.
# [2] = biological target: T2, recombinant cynomolgus MerTK …; assay: SPR Carterra LSA, Ab immobilised
# How it was run: (§1)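 Surface plasmon resonance on a Carterra LSA measured affinity of immobilized antibodies for human, cynomolgus or mouse MerTK ectodomain diluted in HBS-TE with 0.5 mg/ml BSA. Analytes flowed over the full array, surfaces were regenerated with Protein A/G Elution Buffer plus 1M NaCl or 10 mM Glycine pH 2.5, and spots binding under 25 RU were discarded before kinetic fitting.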
# [3] = biological target: T3, recombinant murine MerTK extracellular …; assay: SPR Carterra LSA, Ab immobilised
# How it was run: as §1
Binder,binding result [1],Kd [2] [nM],Kd [3] [nM],binding result [3]
B1,no binding,52,,
B2,,60,4.8,
B3,no binding,830,,
B4,,46,1.7,
B5,,47,1.8,
B6,,85,6.2,
B7,,190,,
B8,,48,,
B9,,410,,
B10,,160,,
B11,,680,,
B12,,38,,no binding (tested: analyte up to 600 nM)
B13,,1.4,,
B14,,1600,,
B15,,80,,
B16,,34,,no binding (tested: analyte up to 600 nM)
